Substitutions are numbered along the chain they refer to. Ends that are not written are not given here.
Tests used:
[1] = biological target: VP5CT of rhesus rotavirus (RRV) VP4 (rhesus rotavirus (RRV)) (UniProt P12473); test: X-ray crystal structure
[2] = biological target: the molecule itself; test: X-ray crystal structure
[3] = biological target: the molecule itself; test: X-ray crystal structure (crystal packing)
[4] = biological target: T1, DS-1 VP8* core with residues 60-64 mutated to SGSGG (human rotavirus strain DS-1, UniProt P11196 65-223 (Rotavirus A entry)); test: two-dimensional 15N-1H HSQC NMR; no change in the chemical shifts of the 15N valines of the peptide
T1 construct: That conversion is mine; also called modified DS-1 VP8* core; unlabeled VP8* core
T1 chain: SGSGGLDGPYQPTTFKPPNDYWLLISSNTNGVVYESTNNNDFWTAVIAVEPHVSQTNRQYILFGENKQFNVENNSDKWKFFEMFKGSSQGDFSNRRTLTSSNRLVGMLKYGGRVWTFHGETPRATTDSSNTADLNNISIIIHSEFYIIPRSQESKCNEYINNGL
Excerpt: We used nuclear magnetic resonance (NMR) spectroscopy to assay the binding in solution of a peptide based on the leader to the potential peptide binding cleft. […] To avoid competition between the peptide and residues of the authentic N-terminal leader of the unlabeled VP8* core, residues 60-64 of the core were mutated to SGSGG using PCR.

VP5CT of rhesus rotavirus (RRV) VP4 (from UniProt P12473 248-525)
share of the surface area of each subunit buried by trimer contacts [1]: 25.8%
surface area of each subunit buried by trimer contacts [1]: 3960 Å2

B1: RRV VP5* antigen domain (residues 247-479 of rhesus rotavirus VP4) (other)
chain: RAQANEDIVVSKTSLWKEMQYNRDITIRFKFASSIVKSGGLGYKWSEISFKPANYQYTYTRDGEEVTAHTTCSVNGMNDFNFNGGSLPTDFVISRYEVIKENSYVYVDYWDDSQAFRNMVYVRSLAANLNSVICTGGDYSFALPVGQWPVMTGGAVSLHSAGVTLSTQFTDFVSLNSLRFRFRLTVEEPSFSITRTRVSRLYGLPAANPNNGKEYYEVAGRFSLISLVPSNDD
notes: Expressed in Sf-9 cells from a baculovirus with an N-terminal histidine tag and a thrombin site; It crystallised both as a trimer and as a dimer, so copies is left open; also called VP5Ag; VP5* antigen (R247-D479)
binding result [2]: binds

B2: DS-1 VP8* core (residues 60-223 of DS-1 VP4) (other)
chain: T1 chain with S1T, G2V, S3E, G4P, G5V
notes: There are eight molecules in the asymmetric unit of the P1 crystal
binding result [3]: binds

B3: peptide TVEPVS (DS-1 VP4 residues 60-64 plus a C-terminal serine) (peptide)
peptide: TVEPVS
modifications: also: 15N-labelled on valine, position not given here
notes: also called leader peptide; assayed peptide
binding result [4]: no binding
